Columns and labels:
Assay in all cases: cell-based or functional assay
[1] = target: HIV-1 Env of isolate MGRM-D-024 (subtype D), on pseudovirus (HIV-1)
[2] = target: HIV-1 Env of isolate MGRM-G-025 (HIV-1)
[3] = target: HIV-1 Env of isolate MGRM-D-001 (HIV-1)
[4] = target: HIV-1 Env of isolate MGRM-C-026 (HIV-1)
[5] = target: HIV-1 Env of isolate 92UG005 (HIV-1)
[6] = target: HIV-1 Env of isolate MGRM-C-008 (HIV-1)
[7] = target: HIV-1 Env of isolate MGRM-D-026 (subtype D), on pseudovirus (HIV-1)
[8] = target: HIV-1 Env of isolate MG RM-D-005 (subtype D) (HIV-1)
[9] = target: HIV-1 Env of isolate MGRM-C-022 (pseudovirus) (HIV-1 isolate MGRM-C-022, subtype C)
[10] = target: HIV-1 MGRM-Chronic-B-004 Env (pseudovirus) (HIV-1)
[11] = target: HIV-1 MGRM-Chronic-B-018 Env (pseudovirus) (HIV-1)
[12] = target: HIV-1 PVO.4 Env (pseudovirus) (HIV-1)
[13] = target: HIV-1 Env of isolate MG RM-AG-008 (HIV-1)
[14] = target: HIV-1 Env of isolate MG RM-AG-001 (HIV-1)
[15] = target: HIV-1 JR-FL Env (pseudovirus) (HIV-1)
[16] = target: HIV-1 JR-CSF Env P470A (HIV-1 (isolate JR-CSF)) (UniProt P20871)
[17] = target: HIV-1 Env of isolate 93MW959 (pseudovirus) (HIV-1 isolate 93MW959, subtype C)
[18] = target: HIV-1 JR-CSF Env V127A (HIV-1 (isolate JR-CSF)) (UniProt P20871)
[19] = target: HIV-1 MGRM-C-023 Env (HIV-1)
[20] = target: HIV-1 IAVI-C18 envelope glycoprotein (Env) on pseudovirus (HIV-1)
[21] = target: HIV-1 92UG005 envelope protein (Env) on pseudovirus (HIV-1)
[22] = target: HIV-1 Env of pseudovirus MGRM-Chronic-B-008, clade B (HIV-1)
[23] = target: HIV-1 MGRM-A-001 envelope glycoprotein (Env) (HIV-1)
[24] = target: HIV-1 LAVIC_18 Env (HIV-1)
[25] = target: aMLV envelope protein on pseudovirus (aMLV)
[26] = target: HIV-1 MGRM-A-008 envelope glycoprotein (Env) (HIV-1)
[27] = target: HIV-1 Env of isolate MGRM-D-029 (clade D) (HIV-1)
[28] = target: HIV-1 93IN905 envelope protein (Env) on pseudotyped virus (HIV-1 isolate 93IN905)
[29] = target: HIV-1 94UG103 envelope protein (Env) on pseudotyped virus (HIV-1 isolate 94UG103)
[30] = target: HIV-1 APV13 envelope glycoprotein (Env) on pseudovirus (HIV-1)

Sequence of 1443_C16 (PG16) (TCN-116) (antibody) (VH): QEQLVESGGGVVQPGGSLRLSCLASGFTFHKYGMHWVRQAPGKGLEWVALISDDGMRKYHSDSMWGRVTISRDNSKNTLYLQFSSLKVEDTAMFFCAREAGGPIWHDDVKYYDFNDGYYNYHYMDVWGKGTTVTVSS
Sequence of 1443_C16 (PG16) (TCN-116) (antibody) (VL): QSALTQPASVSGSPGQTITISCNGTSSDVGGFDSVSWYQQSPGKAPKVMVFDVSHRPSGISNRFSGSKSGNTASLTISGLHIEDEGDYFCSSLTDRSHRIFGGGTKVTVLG
Sequence of 5345_I01 (PGT-137) (antibody) (VH): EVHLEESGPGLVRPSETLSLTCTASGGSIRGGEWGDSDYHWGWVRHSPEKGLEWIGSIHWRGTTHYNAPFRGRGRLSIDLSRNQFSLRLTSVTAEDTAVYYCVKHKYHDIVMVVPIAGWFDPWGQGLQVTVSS
Sequence of 5345_I01 (PGT-137) (antibody) (VL): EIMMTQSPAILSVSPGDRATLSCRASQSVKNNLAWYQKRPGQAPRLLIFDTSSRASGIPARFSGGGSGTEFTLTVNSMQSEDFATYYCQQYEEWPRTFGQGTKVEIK
Sequence of 5329_C19 (PGT-136) (antibody) (VH): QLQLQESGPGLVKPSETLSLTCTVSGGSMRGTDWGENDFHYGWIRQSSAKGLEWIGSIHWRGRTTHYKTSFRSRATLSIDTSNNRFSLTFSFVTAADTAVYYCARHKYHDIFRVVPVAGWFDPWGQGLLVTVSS
Sequence of 5329_C19 (PGT-136) (antibody) (VL): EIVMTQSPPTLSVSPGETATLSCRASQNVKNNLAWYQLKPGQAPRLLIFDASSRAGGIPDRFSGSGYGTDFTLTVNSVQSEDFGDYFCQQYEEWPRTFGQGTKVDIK

Row | Substance | IC50, pseudovirus neutralization [1] | IC50, pseudovirus neutralization [2] | IC50 [3] | IC50 [4] | IC50 [5] | IC50 [6] | IC50, pseudovirus neutralization [7] | IC50 (µg/mL), pseudovirus neutralization [8] | IC50 (µg/mL) neutralization [9] | IC50, pseudovirus neutralization [10] | IC50, pseudovirus neutralization [11] | IC50, pseudovirus neutralization [12] | IC50 [19] | neutralization IC50 [21] | IC50 (µg/ml), pseudovirus neutralization [22] | IC50 (µg/ml), pseudovirus neutralization [23] | IC50 [24] | IC50 (µg/ml), pseudovirus neutralization [26] | IC50 (µg/ml), pseudovirus neutralization [27] | also measured
1 | 5329_C19 (PGT-136) (antibody) | > 50 µg/mL | > 50 µg/mL | > 50 µg/mL | 0.006 µg/mL | > 50 µg/mL | > 50 µg/mL | > 50 µg/mL |  |  |  |  |  |  |  |  |  |  |  |  | 
2 | 4838_L06 (PGT-121) (antibody) |  |  |  |  |  |  |  | > 50 µg/mL | 0.015 µg/mL | 0.009 µg/mL | > 50 µg/mL | 0.137 µg/mL |  |  |  |  |  |  |  | 
3 | 5145_B14 (PGT-127) (antibody) |  | 19.3 µg/mL |  |  |  |  |  | 6.02 µg/mL | 0.41 µg/mL | 0.018 µg/mL | 1.9 µg/mL | 0.164 µg/mL |  |  |  |  |  |  |  | neutralization IC50 [13]: > 50 µg/mL; neutralization IC50 [14]: > 50 µg/mL; IC50, pseudovirus neutralization [15]: 0.029 µg/mL; Fold IC50 increase relative to wild-type [16]: 1 fold; IC50 (µg/mL) neutralization [17]: 6.95 µg/mL; Fold IC50 increase relative to wild-type [18]: 2.5 fold
4 | b12 (antibody) |  |  |  |  |  |  |  |  |  |  |  |  | 13.9 µg/mL | > 50 µg/mL | 2.82 µg/mL | > 50 µg/mL | > 50 µg/mL | > 50 µg/mL | > 50 µg/mL | IC90 (pseudovirus neutralization) [20]: > 50 µg/mL; IC90 (pseudovirus neutralization) [25]: > 50 µg/mL
5 | 1443_C16 (PG16) (TCN-116) (antibody) |  |  |  |  |  |  |  |  |  |  |  |  | 0.09 µg/mL | > 50 µg/mL | 0.73 µg/mL | > 50 µg/mL | 0.02 µg/mL | > 50 µg/mL | > 50 µg/mL | IC90 (pseudovirus neutralization) [20]: 0.207 µg/mL; IC50, pseudovirus neutralization, 1 hour Virus/Ab Incubation [28]: 0.33 µg/mL; IC50, pseudovirus neutralization, 18 hour Virus/Ab Incubation [28]: 0.255 µg/mL; IC90 (pseudovirus neutralization) [25]: > 50 µg/mL; IC50, pseudovirus neutralization, 1 hour Virus/Ab Incubation [29]: 0.0211 µg/mL; IC50, pseudovirus neutralization, 18 hour Virus/Ab Incubation [29]: 0.0085 µg/mL
6 | 4877_D15 (PGT-122) (antibody) |  | 0.079 µg/mL |  |  |  |  |  | > 50 µg/mL | 0.012 µg/mL | 0.008 µg/mL | > 50 µg/mL | 0.689 µg/mL |  |  |  |  |  |  |  | IC50 (ug/ml), neutralizing activity [30]: 0.992 µg/mL; neutralization IC50 [13]: > 50 µg/mL; neutralization IC50 [14]: 14.5 µg/mL; IC50, pseudovirus neutralization [15]: 0.026 µg/mL; IC50 (µg/mL) neutralization [17]: 0.016 µg/mL
7 | 1495_C14 (PGC14) (antibody) |  |  |  |  |  |  |  |  |  |  |  |  | > 50 µg/mL | > 50 µg/mL | > 50 µg/mL | > 50 µg/mL | > 50 µg/mL | > 50 µg/mL | > 50 µg/mL | IC50, pseudovirus neutralization, 1 hour Virus/Ab Incubation [28]: > 50 µg/mL; IC50, pseudovirus neutralization, 18 hour Virus/Ab Incubation [28]: 0.146 µg/mL; IC50, pseudovirus neutralization, 1 hour Virus/Ab Incubation [29]: > 50 µg/mL; IC50, pseudovirus neutralization, 18 hour Virus/Ab Incubation [29]: > 50 µg/mL
8 | 5345_I01 (PGT-137) (antibody) | > 50 µg/mL | > 50 µg/mL | > 50 µg/mL | 0.011 µg/mL | > 50 µg/mL | > 50 µg/mL | > 50 µg/mL |  |  |  |  |  |  |  |  |  |  |  |  | 
9 | 5147_N06 (PGT-130) (antibody) | > 50 µg/mL | 8.45 µg/mL | > 50 µg/mL | 0.036 µg/mL | 0.959 µg/mL | 7.28 µg/mL | > 50 µg/mL |  |  |  |  |  |  |  |  |  |  |  |  | IC50 (ug/ml), neutralizing activity [30]: 0.0345 µg/mL; Fold IC50 increase relative to wild-type [16]: 2.4 fold; Fold IC50 increase relative to wild-type [18]: 0.8 fold

From patent US20200024330A1
